Laboratory results from PMC12296736.
Like-named read-outs stand apart in the source and are kept apart here.

T1: His-nOsBZR4 (His-OsBZR4) (Oryza sativa (rice), UniProt Q6EUF1 1-108)
T1 sequence: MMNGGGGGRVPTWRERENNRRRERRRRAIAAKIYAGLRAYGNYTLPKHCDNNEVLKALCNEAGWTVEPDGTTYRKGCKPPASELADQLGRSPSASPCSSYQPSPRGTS

B1: YUC11-EMSA (dsDNA)
DNA 1: TTCCGTATAAATAGCATGTGCTCTCCGA
DNA 2: TCGGAGAGCACATGCTATTTATACGGAA
B2: YUC4-EMSA (dsDNA)
DNA 1: CGACCGAGCATATGCTCCGTGTTGGTGTATATATACTCGT
DNA 2: ACGAGTATATATACACCAACACGGAGCATATGCTCGGTCG

Tests used:
[1] = biological target: T1, His-nOsBZR4 (His-OsBZR4); test: EMSA
[2] = biological target: T1, His-nOsBZR4 (His-OsBZR4); test: EMSA; remark: listed apart in the source

Binder	binding result [1]	binding result [2]
B1	binds	–
B2	–	binds
